In patent publication US20200087373A1 (UNIVERSITY OF COPENHAGEN, published 2020):
Where “and” joins values, the source holds several entries; their conditions need not be identical. Equal values may be shown once. Ends that are not written are not given here. * marks the point of attachment. C16 diacid = O=C(O)CCCCCCCCCCCCCCC(=O)*; Stearoyl = CCCCCCCCCCCCCCCCCC(=O)*; Palmitoyl = CCCCCCCCCCCCCCCC(=O)*

T1: human GIP receptor (human, UniProt P48546 22-466)
T1 construct: whole, on cells; also called hGIPR
T1 sequence (looked up): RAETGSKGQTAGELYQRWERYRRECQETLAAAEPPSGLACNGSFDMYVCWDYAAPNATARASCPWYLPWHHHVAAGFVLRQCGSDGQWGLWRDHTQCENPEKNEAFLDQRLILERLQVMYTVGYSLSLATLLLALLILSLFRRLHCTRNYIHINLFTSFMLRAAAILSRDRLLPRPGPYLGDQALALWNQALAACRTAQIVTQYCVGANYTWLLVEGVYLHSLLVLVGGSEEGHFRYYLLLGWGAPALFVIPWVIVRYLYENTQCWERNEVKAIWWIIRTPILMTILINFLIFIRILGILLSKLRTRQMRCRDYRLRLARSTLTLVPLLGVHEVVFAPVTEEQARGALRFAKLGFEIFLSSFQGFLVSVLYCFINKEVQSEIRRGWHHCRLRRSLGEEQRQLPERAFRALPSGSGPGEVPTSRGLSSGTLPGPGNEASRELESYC


Tests used:
human GIP receptor [1] = biological target: T1, human GIP receptor; assay: 125I-hGIP competition binding, COS-7 cells expressing hGIPR;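 also: nonspecific binding taken as radioligand bound by untransfected cells, binding buffer with or without 2% HSA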
Method: (§1) After incubation, the cells were washed twice in ice-cold binding buffer (+/−2% HSA) and lysed using 200 mM NaOH with 1% SDS for 30 min. Nonspecific binding was determined as the binding of radioactive ligand to untransfected cells.

human GIP receptor [2] = biological target: T1, human GIP receptor; assay: 125I-hGIP competition binding, COS-7/hGIPR, 0.1% casein;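 also: nonspecific binding defined as radioligand binding measured on untransfected cells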
Method: as §1

human GIP receptor [3] = biological target: T1, human GIP receptor; assay: cell-based or functional assay

| Binder | IC50 (human GIP receptor [1]) [nM] | log IC50 (human GIP receptor [1]) | IC50 (human GIP receptor [2]) [nM] | logIC50 (human GIP receptor [2]) [log M] | cAMP agonism (human GIP receptor [3]) [nM] | cAMP agonism, EC50 (log) (human GIP receptor [3]) | cAMP agonism, Emax (human GIP receptor [3]) | cAMP antagonism (human GIP receptor [3]) [nM] | cAMP antagonism, log (human GIP receptor [3]) [log M] |
| --- | --- | --- | --- | --- | --- | --- | --- | --- | --- |
| TFISDYSIAMDK(Palmitoyl)IHQQDFVNWLLAQK-NH2 (N-terminus assumed; SMILES CCCCCCCCCCCCCCCC(=O)NCCCC[C@H](NC(=O)[C@H](CC(=O)O)NC(=O)[C@H](CCSC)NC(=O)[C@H](C)NC(=O)[C@@H](NC(=O)[C@H](CO)NC(=O)[C@H](Cc1ccc(O)cc1)NC(=O)[C@H](CC(=O)O)NC(=O)[C@H](CO)NC(=O)[C@@H](NC(=O)[C@H](Cc1ccccc1)NC(=O)[C@@H](N)[C@@H](C)O)[C@@H](C)CC)[C@@H](C)CC)C(=O)N[C@H](C(=O)N[C@@H](Cc1c[nH]cn1)C(=O)N[C@@H](CCC(N)=O)C(=O)N[C@@H](CCC(N)=O)C(=O)N[C@@H](CC(=O)O)C(=O)N[C@@H](Cc1ccccc1)C(=O)N[C@H](C(=O)N[C@@H](CC(N)=O)C(=O)N[C@@H](Cc1c[nH]c2ccccc12)C(=O)N[C@@H](CC(C)C)C(=O)N[C@@H](CC(C)C)C(=O)N[C@@H](C)C(=O)N[C@@H](CCC(N)=O)C(=O)N[C@@H](CCCCN)C(N)=O)C(C)C)[C@@H](C)CC) [AT125 [hGIP(5-30)NH2-C16/16]] | 714 | -6.1 log M | – | – | – | – | – | – | – |
| TFISDYSIAMDK(C18 fatty acyl)IHQQDFVNWLLAQK-NH2 [AT128 [hGIP(5-30)NH2-C18/16]] | 466 | -6.3 log M | – | – | – | – | – | – | – |
| TFISDYSIAMDKIHQQDFVNWLLAQK(Palmitoyl)-NH2 (N-terminus assumed; SMILES CCCCCCCCCCCCCCCC(=O)NCCCC[C@H](NC(=O)[C@H](CCC(N)=O)NC(=O)[C@H](C)NC(=O)[C@H](CC(C)C)NC(=O)[C@H](CC(C)C)NC(=O)[C@H](Cc1c[nH]c2ccccc12)NC(=O)[C@H](CC(N)=O)NC(=O)[C@@H](NC(=O)[C@H](Cc1ccccc1)NC(=O)[C@H](CC(=O)O)NC(=O)[C@H](CCC(N)=O)NC(=O)[C@H](CCC(N)=O)NC(=O)[C@H](Cc1c[nH]cn1)NC(=O)[C@@H](NC(=O)[C@H](CCCCN)NC(=O)[C@H](CC(=O)O)NC(=O)[C@H](CCSC)NC(=O)[C@H](C)NC(=O)[C@@H](NC(=O)[C@H](CO)NC(=O)[C@H](Cc1ccc(O)cc1)NC(=O)[C@H](CC(=O)O)NC(=O)[C@H](CO)NC(=O)[C@@H](NC(=O)[C@H](Cc1ccccc1)NC(=O)[C@@H](N)[C@@H](C)O)[C@@H](C)CC)[C@@H](C)CC)[C@@H](C)CC)C(C)C)C(N)=O) [AT126 [hGIP(5-30)NH2-C16/30]] | 7790 | -5.1 log M | – | – | – | – | – | – | – |
| TFISDYSIAMDKIHQQDFVNWLLK(C16 diacid)QK-NH2 (N-terminus assumed; SMILES CC[C@H](C)[C@H](NC(=O)[C@H](CO)NC(=O)[C@H](Cc1ccc(O)cc1)NC(=O)[C@H](CC(=O)O)NC(=O)[C@H](CO)NC(=O)[C@@H](NC(=O)[C@H](Cc1ccccc1)NC(=O)[C@@H](N)[C@@H](C)O)[C@@H](C)CC)C(=O)N[C@@H](C)C(=O)N[C@@H](CCSC)C(=O)N[C@@H](CC(=O)O)C(=O)N[C@@H](CCCCN)C(=O)N[C@H](C(=O)N[C@@H](Cc1c[nH]cn1)C(=O)N[C@@H](CCC(N)=O)C(=O)N[C@@H](CCC(N)=O)C(=O)N[C@@H](CC(=O)O)C(=O)N[C@@H](Cc1ccccc1)C(=O)N[C@H](C(=O)N[C@@H](CC(N)=O)C(=O)N[C@@H](Cc1c[nH]c2ccccc12)C(=O)N[C@@H](CC(C)C)C(=O)N[C@@H](CC(C)C)C(=O)N[C@@H](CCCCNC(=O)CCCCCCCCCCCCCCC(=O)O)C(=O)N[C@@H](CCC(N)=O)C(=O)N[C@@H](CCCCN)C(N)=O)C(C)C)[C@@H](C)CC) [AT188 [hGIP(5-30)NH2[A28K]-C16diacid/28]] | 183 | -6.7 log M and -6.74 log M | 26300 | -4.6 | 152 | -7 log M and -6.8 log M | 10 | 152 | -6.8 |
| K(C16 diacid)FISDYSIAMDKIHQQDFVNWLLAQK-NH2 (N-terminus assumed; SMILES CC[C@H](C)[C@H](NC(=O)[C@H](CO)NC(=O)[C@H](Cc1ccc(O)cc1)NC(=O)[C@H](CC(=O)O)NC(=O)[C@H](CO)NC(=O)[C@@H](NC(=O)[C@H](Cc1ccccc1)NC(=O)[C@@H](N)CCCCNC(=O)CCCCCCCCCCCCCCC(=O)O)[C@@H](C)CC)C(=O)N[C@@H](C)C(=O)N[C@@H](CCSC)C(=O)N[C@@H](CC(=O)O)C(=O)N[C@@H](CCCCN)C(=O)N[C@H](C(=O)N[C@@H](Cc1c[nH]cn1)C(=O)N[C@@H](CCC(N)=O)C(=O)N[C@@H](CCC(N)=O)C(=O)N[C@@H](CC(=O)O)C(=O)N[C@@H](Cc1ccccc1)C(=O)N[C@H](C(=O)N[C@@H](CC(N)=O)C(=O)N[C@@H](Cc1c[nH]c2ccccc12)C(=O)N[C@@H](CC(C)C)C(=O)N[C@@H](CC(C)C)C(=O)N[C@@H](C)C(=O)N[C@@H](CCC(N)=O)C(=O)N[C@@H](CCCCN)C(N)=O)C(C)C)[C@@H](C)CC) [AT293 [hGIP(5-30)NH2[T5KK]-C16diacid/5]] | – | – | – | – | – | – | 0 | 14 | -7.8 |
| TFISDYSIAMDKIK(C16 diacid)QQDFVNWLLAQK-NH2 (N-terminus assumed; SMILES CC[C@H](C)[C@H](NC(=O)[C@H](CO)NC(=O)[C@H](Cc1ccc(O)cc1)NC(=O)[C@H](CC(=O)O)NC(=O)[C@H](CO)NC(=O)[C@@H](NC(=O)[C@H](Cc1ccccc1)NC(=O)[C@@H](N)[C@@H](C)O)[C@@H](C)CC)C(=O)N[C@@H](C)C(=O)N[C@@H](CCSC)C(=O)N[C@@H](CC(=O)O)C(=O)N[C@@H](CCCCN)C(=O)N[C@H](C(=O)N[C@@H](CCCCNC(=O)CCCCCCCCCCCCCCC(=O)O)C(=O)N[C@@H](CCC(N)=O)C(=O)N[C@@H](CCC(N)=O)C(=O)N[C@@H](CC(=O)O)C(=O)N[C@@H](Cc1ccccc1)C(=O)N[C@H](C(=O)N[C@@H](CC(N)=O)C(=O)N[C@@H](Cc1c[nH]c2ccccc12)C(=O)N[C@@H](CC(C)C)C(=O)N[C@@H](CC(C)C)C(=O)N[C@@H](C)C(=O)N[C@@H](CCC(N)=O)C(=O)N[C@@H](CCCCN)C(N)=O)C(C)C)[C@@H](C)CC) [AT156 [hGIP(5-30)NH2[H18K]-C16diacid/18]] | – | – | – | – | 2 | -9 log M | 12 | 12 | -7.9 |
| TFISDYSIAMDKIK(Stearoyl)QQDFVNWLLAQK-NH2 (N-terminus assumed; SMILES CCCCCCCCCCCCCCCCCC(=O)NCCCC[C@H](NC(=O)[C@@H](NC(=O)[C@H](CCCCN)NC(=O)[C@H](CC(=O)O)NC(=O)[C@H](CCSC)NC(=O)[C@H](C)NC(=O)[C@@H](NC(=O)[C@H](CO)NC(=O)[C@H](Cc1ccc(O)cc1)NC(=O)[C@H](CC(=O)O)NC(=O)[C@H](CO)NC(=O)[C@@H](NC(=O)[C@H](Cc1ccccc1)NC(=O)[C@@H](N)[C@@H](C)O)[C@@H](C)CC)[C@@H](C)CC)[C@@H](C)CC)C(=O)N[C@@H](CCC(N)=O)C(=O)N[C@@H](CCC(N)=O)C(=O)N[C@@H](CC(=O)O)C(=O)N[C@@H](Cc1ccccc1)C(=O)N[C@H](C(=O)N[C@@H](CC(N)=O)C(=O)N[C@@H](Cc1c[nH]c2ccccc12)C(=O)N[C@@H](CC(C)C)C(=O)N[C@@H](CC(C)C)C(=O)N[C@@H](C)C(=O)N[C@@H](CCC(N)=O)C(=O)N[C@@H](CCCCN)C(N)=O)C(C)C) [AT161 [hGIP(5-30)NH2[H18K]-C18/18]] | – | – | – | – | 1060 | -6 log M | 7 | 252 | -6.6 |
| {C18 fatty acyl}-TFISDYSIAMDKIHQQDFVNWLLAQK-NH2 [AT127 [hGIP(5-30)NH2-C18/5]] | 2040 | -5.7 log M | 1470 | -5.8 | – | – | – | – | – |
| TFISDYSIAMDRIK(C16 diacid)QQDFVNWLLAQR-NH2 (N-terminus assumed; SMILES CC[C@H](C)[C@H](NC(=O)[C@H](CO)NC(=O)[C@H](Cc1ccc(O)cc1)NC(=O)[C@H](CC(=O)O)NC(=O)[C@H](CO)NC(=O)[C@@H](NC(=O)[C@H](Cc1ccccc1)NC(=O)[C@@H](N)[C@@H](C)O)[C@@H](C)CC)C(=O)N[C@@H](C)C(=O)N[C@@H](CCSC)C(=O)N[C@@H](CC(=O)O)C(=O)N[C@@H](CCCNC(=N)N)C(=O)N[C@H](C(=O)N[C@@H](CCCCNC(=O)CCCCCCCCCCCCCCC(=O)O)C(=O)N[C@@H](CCC(N)=O)C(=O)N[C@@H](CCC(N)=O)C(=O)N[C@@H](CC(=O)O)C(=O)N[C@@H](Cc1ccccc1)C(=O)N[C@H](C(=O)N[C@@H](CC(N)=O)C(=O)N[C@@H](Cc1c[nH]c2ccccc12)C(=O)N[C@@H](CC(C)C)C(=O)N[C@@H](CC(C)C)C(=O)N[C@@H](C)C(=O)N[C@@H](CCC(N)=O)C(=O)N[C@@H](CCCNC(=N)N)C(N)=O)C(C)C)[C@@H](C)CC) [AT157 [hGIP(5-30)NH2[K16R; H18K; K30R]-C16diacid/18]] | – | – | – | – | 3 | -8 log M | 12 | 7 | -8.1 |
